In patent US7179650:

Key:
[1] = molecular target: pGBT9-Fas (191-319AA): intracellular domain of Fas/APO-1 fused to the GAL4 DNA-binding domain (human); assay: yeast two-hybrid β-galactosidase filter assay
[2] = molecular target: P53 (yeast two-hybrid control); assay: yeast two-hybrid β-galactosidase filter assay (control pair)
Chain of P53 (yeast two-hybrid control) (P02340 72-390): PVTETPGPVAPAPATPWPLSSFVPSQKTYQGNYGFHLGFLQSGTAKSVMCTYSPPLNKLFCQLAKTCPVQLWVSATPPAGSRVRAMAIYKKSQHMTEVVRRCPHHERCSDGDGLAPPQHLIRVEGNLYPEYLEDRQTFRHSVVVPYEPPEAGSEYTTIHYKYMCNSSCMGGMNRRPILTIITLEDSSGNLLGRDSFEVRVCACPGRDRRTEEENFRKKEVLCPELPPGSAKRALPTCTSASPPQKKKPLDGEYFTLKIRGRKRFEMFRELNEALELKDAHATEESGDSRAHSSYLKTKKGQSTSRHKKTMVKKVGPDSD

| Substance | time for the colony to turn blue [1] [h] | time for the colony to turn blue [2] [min] |
| --- | --- | --- |
| Clone 68: in-frame fusion of the Gal4 activation domain to the death domain of FADD/MORT1 (from UniProt Q13158 80-208) | < 3 | – |
| SV40 T antigen (yeast two-hybrid control) (from UniProt P03070 84-708) | – | < 30 |
| Sentrin-1 (SEQ ID NO:2) fused to the Gal4 activation-domain (from UniProt A7WLH8 1-101) | < 3 | – |
